Measurements from patent publication US20150010525A1, “Catalytic Tagging System to Study Macro-Molecular Interactions Using Engineered Ubiquitin Ligase and Ubiquitin-Like Proteins to Facilitate Substrate Identification” (THE REGENTS OF THE UNIVERSITY OF CALIFORNIA, priority 2012, published 2015).

Assays:
XIAP [1] = target: T1, XIAP (Homo sapiens, UniProt P61081+P98170); assay: SILAC mass spectrometry screen for XIAP substrates with NEDDylator^XIAP in apoptotic Jurkat cell lysate; format: biochemical; settings: Heavy lysate with Ubc12
T1 construct: The N-terminus (residues 1-434) of XIAP was then fused via a flexible Gly-Gly-Ser-Gly linker to the NEDD8 E2, Ubc12; GST (N, cleaved yes); made in house; host or cells: E. coli BL21 (DE3)
T1 sequence (P98170+P61081 fused): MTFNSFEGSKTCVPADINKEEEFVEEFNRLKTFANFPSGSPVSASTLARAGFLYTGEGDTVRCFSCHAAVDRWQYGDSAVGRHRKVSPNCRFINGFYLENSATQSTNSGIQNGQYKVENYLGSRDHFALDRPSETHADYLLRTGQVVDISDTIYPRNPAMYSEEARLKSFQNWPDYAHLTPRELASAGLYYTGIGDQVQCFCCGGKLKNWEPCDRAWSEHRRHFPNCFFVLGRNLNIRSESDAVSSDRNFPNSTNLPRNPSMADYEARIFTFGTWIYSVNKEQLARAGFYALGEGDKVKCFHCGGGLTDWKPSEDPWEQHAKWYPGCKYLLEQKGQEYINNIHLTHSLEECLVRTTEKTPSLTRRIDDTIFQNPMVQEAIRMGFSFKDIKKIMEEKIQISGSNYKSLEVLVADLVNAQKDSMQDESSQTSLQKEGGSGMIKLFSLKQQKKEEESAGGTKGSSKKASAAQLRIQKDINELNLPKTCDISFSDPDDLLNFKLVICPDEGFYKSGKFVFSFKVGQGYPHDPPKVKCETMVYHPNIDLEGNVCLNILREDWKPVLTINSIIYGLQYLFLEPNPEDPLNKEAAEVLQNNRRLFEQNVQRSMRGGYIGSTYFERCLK
Protocol: Jurkat cells were grown in media containing either light or heavy isotopes of lysine and arginine and induced to undergo apoptosis with STS. Light cell extracts were incubated with the respective catalytic tagging system for each of the two IAPs and the heavy extracts labeled only with the wild-type NEDD8 E2, Ubc12. 64 mg regular L-Lys and 83.6 mg L-Arg.HCl were added to 1 liter RPMI-1640 minus L-Lys and L-Arg (Thermo/Pierce), 10% fetal bovine serum (FBS) to generate “Light” medium. 100 mg ^13C6^15N2 L-Lys.2HCl and 86 mg ^13C6 L-Arg.HCl (Cambridge Isotope) were added to the same amount of medium to generate the “Heavy” medium. Jurkat cells were cultured separately in “Light” or “Heavy” medium for 7 days to allow for thorough isotope incorporation. For IAP substrate identification, 400 million cells were treated with 2 μM STS for 4 hours, harvested, lysed in M-PER mammalian protein extraction buffer (Thermo/Pierce) in the presence of protease inhibitors (100× ProteoBlock cocktail, Fermentas) and mixed with cell lysate prepared from 400 million untreated cells. The NEDDylated proteins were isolated under denaturing conditions via the HB-NEDD8 tag using a tandem affinity pull down procedure (Tagwerker et al., Mol Cell Proteomics 5:737-748 (2006)) (FIG. 11). Purified NEDDylated proteins were trypsinized and analyzed with tandem mass spectrometry (LC-MS/MS).
For SILAC experiments, Jurkat cells were cultured separately in “Light” (supplemented with regular Lys and Arg) or “Heavy” (supplemented with ^13C6^15N2 Lys and ^13C6 Arg) medium for 7 days to allow for thorough isotope incorporation. Apoptotic “Light” and “Heavy” cell extracts were prepared individually. The lysates were cleared by spinning and then diluted in 50 mM HEPES pH 7.4, 150 mM NaCl to 5 mg/ml and supplemented with 5 mM ATP, 10 mM MgCl2. Endogenous NEDD8 E1 is cell lysate was used to catalyze the reaction. HB-NEDD8 was added to both lysate at mass ratio 1:500; the catalytic tagging system was added to the “Light” lysate at mass ratio 1:1000. Equal molar of Ubc12 was added to the “Heavy” lysate. […] NEDDylated proteins were separated by one-dimensional SDS-PAGE, and trypsinized for LC-MS/MS analysis.
For liquid chromatography—Tandem mass spectrometry (LC-MS/MS) analysis, the tryptic peptides were first desalted and concentrated with a C18 Ziptip (Millipore). LC-MS/MS was carried out by reverse phase LC interfaced with a LTQ-Orbitrap (ThermoFisher Scientific) hybrid mass spectrometer. A nanoflow HPLC (NanoAcquity UPLC system, Waters Corporation) was equipped with a trap column (180 μm×20 mm, 5 μm SymmetryC18, from Waters) and an analytical column (100 μm×100 mm, 1.7 μm BEH130C18, from Waters). […]

XIAP [2] = target: XIAP (Homo sapiens, UniProt P98170); assay: In vitro PGAM5 ubiquitination assay with XIAP; format: biochemical; settings: 50 nM UBE1, 200 nM UbcH5b, 700 nM XIAP, 1.5 μM PGAM5-His6
Chain of XIAP (Homo sapiens, UniProt P98170) (P98170 whole entry, the tested form may be a part): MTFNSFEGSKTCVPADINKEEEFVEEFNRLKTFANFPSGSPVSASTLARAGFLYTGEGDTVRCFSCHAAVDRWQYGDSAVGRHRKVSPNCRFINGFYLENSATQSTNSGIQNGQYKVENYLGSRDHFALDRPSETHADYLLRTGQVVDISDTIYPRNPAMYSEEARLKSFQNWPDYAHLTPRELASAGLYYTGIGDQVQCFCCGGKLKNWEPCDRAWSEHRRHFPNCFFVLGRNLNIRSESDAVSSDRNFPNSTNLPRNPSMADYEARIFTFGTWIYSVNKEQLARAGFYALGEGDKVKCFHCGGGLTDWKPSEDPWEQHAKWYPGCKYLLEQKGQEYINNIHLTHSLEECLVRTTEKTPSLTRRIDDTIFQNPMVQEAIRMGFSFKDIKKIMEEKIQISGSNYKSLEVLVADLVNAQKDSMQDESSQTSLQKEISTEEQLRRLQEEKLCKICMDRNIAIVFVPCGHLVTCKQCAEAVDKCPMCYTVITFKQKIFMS
Description: FIG. 12 illustrates the identification of the proteolytic form of PGAM5 as an XIAP and cIAP1 substrate in vitro. […] Overall, 15 unique peptides from PGAM5 were recovered and account for 43% of the entire protein sequence. (B) An example of LC-MS/MS spectrum from endogenous PGAM5 N-terminal peptide after subtiligase labeling and positive enrichment. A non-natural amino acid, 2-aminobutyric acid (Abu), is a designed tag showing characteristic labeling by subtiligase. (C) PGAM5 is cleaved into a truncated form in cells. Jurkat cells were transiently transfected with C-terminal Myc tagged full length PGAM5 or PGAM5 (Δ2-24). […] (D) N-terminal amino acid sequence alignment of PGAM5(Δ24) and other known evolutionarily conserved IBM sequences. Reaper, Hid, and Grim are Drosophila proteins that bind DIAP1, the Drosophila IAP. Amino acids are colored according to their chemical properties. (E) XIAP binds PGAM5(Δ24) but not the full length PGAM5. Recombinant GST fused XIAP, PGAM5(FL), and PGAM5(Δ24) were used for in vitro GST pull down experiments. (F) PGAM5(Δ24) binds to XIAP and cIAP1 independent of the RING domain. […] The resins were washed and proteins were eluted and analyzed with SDSPAGE and coomassie blue staining. […] The ubiquitination assay was performed in vitro and PGAM5 is detected with an anti-His antibody. […]

GST-XIAP = target: T2, GST-XIAP (Homo sapiens, UniProt P98170); assay: In vitro GST pull down; format: binding; settings: recombinant proteins
T2 construct: made in house
T2 sequence (P98170 whole entry): as the sequence (P98170 whole entry, the tested form may be a part) above
Description: FIG. 12 illustrates the identification of the proteolytic form of PGAM5 as an XIAP and cIAP1 substrate in vitro. […] Overall, 15 unique peptides from PGAM5 were recovered and account for 43% of the entire protein sequence. (B) An example of LC-MS/MS spectrum from endogenous PGAM5 N-terminal peptide after subtiligase labeling and positive enrichment. A non-natural amino acid, 2-aminobutyric acid (Abu), is a designed tag showing characteristic labeling by subtiligase. (C) PGAM5 is cleaved into a truncated form in cells. Jurkat cells were transiently transfected with C-terminal Myc tagged full length PGAM5 or PGAM5 (Δ2-24). […] (D) N-terminal amino acid sequence alignment of PGAM5(Δ24) and other known evolutionarily conserved IBM sequences. Reaper, Hid, and Grim are Drosophila proteins that bind DIAP1, the Drosophila IAP. Amino acids are colored according to their chemical properties. (E) XIAP binds PGAM5(Δ24) but not the full length PGAM5. Recombinant GST fused XIAP, PGAM5(FL), and PGAM5(Δ24) were used for in vitro GST pull down experiments. (F) PGAM5(Δ24) binds to XIAP and cIAP1 independent of the RING domain. […] The resins were washed and proteins were eluted and analyzed with SDSPAGE and coomassie blue staining. […] The ubiquitination assay was performed in vitro and PGAM5 is detected with an anti-His antibody.

B1: Serine/threonine-protein phosphatase PGAM5, mitochondrial: phosphoglycerate mutase family member 5, dimeric protein phosphatase (protein, UniProt Q96HS1 1-289, looked up)
chain: MAFRQALQLAACGLAGGSAAVLFSAVAVGKPRAGGDAEPRPAEPPAWAGGARPGPGVWDPNWDRREPLSLINVRKRNVESGEEELASKLDHYKAKATRHIFLIRHSQYHVDGSLEKDRTLTPLGREQAELTGLRLASLGLKFNKIVHSSMTRAIETTDIISRHLPGVCKVSTDLLREGAPIEPDPPVSHWKPEAVQYYEDGARIEAAFRNYIHRADARQEEDSYEIFICHANVIRYIVCRALQFPPEGWLRLSLNNGSITHLVIRPNGRVALRTLGDTGFMPPDKITRS
modifications: full-length
notes: phosphoglycerate mutase family member 5, dimeric protein phosphatase
L/H (Light/Heavy ratio) (XIAP [1]): 5.88
ubiquitination by XIAP (XIAP [2]): not the full length protein
binding to XIAP (pull down) (GST-XIAP): not the full length PGAM5 was pulled down
